Like-named read-outs stand apart in the source and are kept apart here.
B1: SEQ ID NO: 34 (S18 hit, pIX phage) (peptide)
chain: GGGYDCVSFGAVAYCPQGGGSGGSGG
notes: pIX phagemid display; not shown: M13 phage coat protein pIX (MSVL...)
B2: SEQ ID NO: 15 (S15 hit, pIX phage) (peptide)
chain: GGGNWFSLPTLLCFPLNPGGGSGGSGG
notes: as for B1
B3: SEQ ID NO: 10 (S15 hit, pIX phage) (peptide)
chain: GGGYRLFVDESIFFCTRLGGGSGGSGG
notes: as for B1
B4: SEQ ID NO: 18 (S15 hit, pIX phage) (peptide)
chain: GGGPIFSSLPVLYCTSQLGGGSGGSGG
notes: as for B1
B5: SEQ ID NO: 24 (S18 hit, pIX phage) (peptide)
chain: GGGAKCIAFGNSVYCLNGGGSGGSGG
notes: as for B1
B6: P190 phage, pIX display (190-phagemid) (peptide)
chain: GGGDPCTWEVWGRECLQGGGSGGSGG
notes: pIX phagemid display, on average one peptide per phage particle; also called PHPEP190; pIX-190; not shown: M13 phage coat protein pIX (MSVL...)
B7: SEQ ID NO: 26 (S18 hit, pIX phage) (peptide)
chain: GGGKHCILFEKTVYCAKGGGSGGSGG
notes: as for B1
B8: P180 phage (S19, pIX) (peptide)
chain: GGGMICYLVDSGNIICYKGGGSGGSGG
notes: pIX phagemid display; also called PP180; not shown: M13 phage coat protein pIX (MSVL...)
B9: SEQ ID NO: 14 (S15 hit, pIX phage) (peptide)
chain: GGGHVSLQSLPELICVVSGGGSGGSGG
notes: as for B1
B10: P190-MMB construct 4314 (Fc fusion)
chain: GGDPCTWEVWGRECLQGGGSCPPCPAPEAAGGPSVFLFPPKPKDTLMISRTPEVTCVVVDVSQEDPEVQFNWYVDGVEVHNAKTKPREEQFNSTYRVVSVLTVLHQDWLNGKEYKCKVSNKGLPSSIEKTISKAKGQPREPQVYTLPPSQEEMTKNQVSLTCLVKGFYPSDIAVEWESNGQPENNYKTTPPVLDSDGSFFLYSRLTVDKSRWQEGNVFSCSVMHEALHNHYTQKSLSLSLGK
notes: GG, P190, Flex, human IgG4 hinge-CH2-CH3 with two Leu to Ala changes
B11: SEQ ID NO: 30 (S18 hit, pIX phage) (peptide)
chain: GGGAYCSFVAGDLVCQVGGGSGGSGG
notes: as for B1
B12: SEQ ID NO: 25 (S18 hit, pIX phage) (peptide)
chain: GGGRDCIIFDKTVYCVIGGGSGGSGG
notes: as for B1
B13: SEQ ID NO: 44 (S20 hit, pIX phage) (peptide)
chain: GGGWMCFLEGYGASLMCQCGGGSGGSGG
notes: as for B1
B14: SEQ ID NO: 47 (S20 hit, pIX phage) (peptide)
chain: GGGSVCVGTAFPGWMVCGPGGGSGGSGG
notes: as for B1
B15: SEQ ID NO: 41 (S19 hit, pIX phage) (peptide)
chain: GGGCDCREAVSASLVCRYGGGSGGSGG
notes: as for B1
B16: P178 phage (S17, pIX) (peptide)
chain: GGGRWCYFWWITICELGGGSGGSGG
notes: pIX phagemid display; also called PP178; not shown: M13 phage coat protein pIX (MSVL...)
B17: SEQ ID NO: 43 (S20 hit, pIX phage) (peptide)
chain: GGGPTCDSATRRVLTICADGGGSGGSGG
notes: as for B1
B18: SEQ ID NO: 19 (S15 hit, pIX phage) (peptide)
chain: GGGGADTLPDLLCWESSLGGGSGGSGG
notes: as for B1
B19: SEQ ID NO: 11 (S15 hit, pIX phage) (peptide)
chain: GGGELGLPTLLCWPTDTLGGGSGGSGG
notes: as for B1
B20: SEQ ID NO: 21 (S15 hit, pIX phage) (peptide)
chain: GGGLPDLICAVDSGTSGAGGGSGGSGG
notes: as for B1
B21: SEQ ID NO: 27 (S18 hit, pIX phage) (peptide)
chain: GGGDSCIQFANLLYCAIGGGSGGSGG
notes: as for B1
B22: SEQ ID NO: 46 (S20 hit, pIX phage) (peptide)
chain: GGGYICTPSDIDSWYICYLGGGSGGSGG
notes: as for B1
B23: SEQ ID NO: 17 (S15 hit, pIX phage) (peptide)
chain: GGGPIDDESLPVLYCVTSGGGSGGSGG
notes: as for B1
B24: P177 phage (S16, pIX) (peptide)
chain: GGGDACTMVFLWCSLGGGSGGSGG
notes: pIX phagemid display; also called PP177; not shown: M13 phage coat protein pIX (MSVL...)
B25: SEQ ID NO: 38 (S19 hit, pIX phage) (peptide)
chain: GGGYDCMIRADGSLICWCGGGSGGSGG
notes: as for B1
B26: SEQ ID NO: 45 (S20 hit, pIX phage) (peptide)
chain: GGGDSCCSFLTDGTVVCSLGGGSGGSGG
notes: as for B1
B27: SEQ ID NO: 40 (S19 hit, pIX phage) (peptide)
chain: GGGAFCRLDFNQWLTCLVGGGSGGSGG
notes: as for B1
B28: SEQ ID NO: 16 (S15 hit, pIX phage) (peptide)
chain: GGGSTITSLPTLQCWPILGGGSGGSGG
notes: as for B1
B29: SEQ ID NO: 23 (S18 hit, pIX phage) (peptide)
chain: GGGAGCIAFVDVVYCARGGGSGGSGG
notes: as for B1
B30: SEQ ID NO: 49 (S20 hit, pIX phage) (peptide)
chain: GGGLLCATTSFRDWFVCFTGGGSGGSGG
notes: as for B1
B31: P175 phage (S15, pIX) (peptide)
chain: GGGLPDDSLPELICKVRGGGGSGGSGG
notes: pIX phagemid display; also called PP175; not shown: M13 phage coat protein pIX (MSVL...)
B32: SEQ ID NO: 35 (S18 hit, pIX phage) (peptide)
chain: GGGRGCVVFGDNIYCIVGGGSGGSGG
notes: as for B1
B33: P173 phage (S18, pIX) (peptide)
chain: GGGTDCVIFGLETYCLRGGGSGGSGG
notes: pIX phagemid display; also called PP173; not shown: M13 phage coat protein pIX (MSVL...)
B34: SEQ ID NO: 12 (S15 hit, pIX phage) (peptide)
chain: GGGVSGILPILVCHPAATGGGSGGSGG
notes: as for B1
B35: SEQ ID NO: 28 (S18 hit, pIX phage) (peptide)
chain: GGGTDCIRFGVLWYCLVGGGSGGSGG
notes: as for B1
B36: SEQ ID NO: 20 (S15 hit, pIX phage) (peptide)
chain: GGGTVFTLPELVCVVAGTGGGSGGSGG
notes: as for B1
B37: SEQ ID NO: 32 (S18 hit, pIX phage) (peptide)
chain: GGGSDCVLFGSKLFCSAGGGSGGSGG
notes: as for B1
B38: SEQ ID NO: 29 (S18 hit, pIX phage) (peptide)
chain: GGGRACITFGKVVYCEVGGGSGGSGG
notes: as for B1
B39: P179 phage (S19, pIX) (peptide)
chain: GGGGPCVLIRDYYLLCLEGGGSGGSGG
notes: pIX phagemid display; also called PP179; not shown: M13 phage coat protein pIX (MSVL...)
B40: SEQ ID NO: 33 (S18 hit, pIX phage) (peptide)
chain: GGGTDCVRFGETIYCIVGGGSGGSGG
notes: as for B1

Key:
[1] = target: T1, sEGFR-MMB (dimeric sEGFR mimetibody) (human); experiment: phage ELISA on coated sEGFR-MMB, chemiluminescence (background typically <200 units)
T1 construct: Disulfide linked homodimer, expressed in 293E cells; also called sEGFR-Fc

[2] = target: T1, sEGFR-MMB (dimeric sEGFR mimetibody); experiment: as above; remark: listed apart in the source
[3] = target: T2, Human extracellular EGFR-His6 (sEGFR-His6) (human, UniProt P00533 25-645); experiment: phage ELISA, coated sEGFR-His6
T2 construct: Monomer, expressed in HEK293E cells, glycosylated; also called sEGFR-6×His; monomeric sEGFR
Protocol: (§1) The plates were held overnight at room temperature, washed twice with TBST (0.5M Tris Base, 9% NaCl, 0.05% tween, pH 7.6), and loaded with 200 μL per well of Starting Block (Pierce). […] The plates were held at room temperature for 1.5 hours for blocking. Plates were then washed twice with TBST and phage were added. The phage solutions were crude phage supernatant from overnight cultures diluted four-fold with Starting Block. After a one-hour incubation, the plates were washed thrice with TBST and 100 μL of a 1:5000 dilution of phage binding antibody conjugate (a-M13-HRP) was added to the wells. […] After a one-hour incubation the plates were washed five times with TBST, 100 μL of POD (BM Chemiluminescence ELISA substrate; Roche Applied Science) was added, and chemiluminescene recorded.

Control-MMB (CNTO 360) [4] = target: T3, Control-MMB (CNTO 360) (Homo sapiens (Human), UniProt P0DOX5 111-449 = IgG part); experiment: phage ELISA, protein coated at 5 ug per mL
T3 construct: Described as human IgG1 heavy chain dimer absent the variable and most of the CH1 domains; also called blank mimetibody scaffold protein

[5] = target: T2, Human extracellular EGFR-His6 …; experiment: phage ELISA, protein coated at 5 ug per mL, chemiluminescence
Protocol: as §1

[6] = target: T1, sEGFR-MMB (dimeric sEGFR mimetibody); experiment: as above
Protocol: as §1

[7] = target: T1, sEGFR-MMB (dimeric sEGFR mimetibody); experiment: phage ELISA on coated sEGFR-MMB, chemiluminescence (background typically <200 units); remark: listed apart in the source
[8] = target: T1, sEGFR-MMB (dimeric sEGFR mimetibody); experiment: ELISA, luminescence; sEGFR-MMB immobilized, MMB titrated
[9] = target: T1, sEGFR-MMB (dimeric sEGFR mimetibody); experiment: phage ELISA on coated sEGFR-MMB, chemiluminescence (background typically <200 units); remark: listed apart in the source
[10] = target: T1, sEGFR-MMB (dimeric sEGFR mimetibody); experiment: as above; remark: listed apart in the source
Protocol: The protein solution was removed and wells were rinsed twice with Tris-Buffered Saline containing 0.05% Tween-20 (TBS-T) using a plate washer (Embla). The wells were blocked with Starting Block in TBS for 1 hr at room temperature and rinsed twice with TBS-T. An equal volume of phage supernatant and Starting Block in TBS were incubated in the wells for 1 hr at room temperature, and the wells were rinsed five times with TBS-T. Anti-M13/horseradish peroxidase conjugate (Amersham), diluted 1:5000 in Starting Block in TBS, was added into the wells and incubated for 1 hour at room temperature, and then the wells were rinsed five times with TBS-T. Finally, chemiluminescent peroxidase substrate (Roche) was added to the wells, and chemiluminescence was measured on a Tecan plate reader.

Control-MMB (CNTO 360) [11] = target: T3, Control-MMB (CNTO 360); experiment: phage ELISA, luminescence; Control-MMB coated on the wells [panel A]
Streptavidin alone = experiment: phage ELISA, luminescence; streptavidin-coated wells without receptor [panel C]
Protocol: Confirmatory Phage ELISA. Phage were amplified in XL-1 Blue host cells and purified by precipitation with 6% polyethylene glycol-8000/0.5 M sodium chloride. The precipitated phage were resuspended in phosphate-buffered saline in a volume that was 1/100th the original culture volume. […] The binding reaction was incubated for 1 hr at room temperature, and then bound phage were detected with anti-M13/HRP as above. For ELISAs with biotinylated receptors, streptavidin at 5 μg/ml was coated in the wells overnight at 4° C. […] The wells were rinsed with TBS-T and then blocked with Starting Block. Bound phage were washed and detected with anti-M13/HRP as described above.

biotinylated sEGFR-His6 = target: T4, biotinylated sEGFR-His6 (human, UniProt P00533 25-645, biotinylated (reagent and sites not stated)); experiment: phage ELISA, luminescence; biotinylated receptor captured on streptavidin [panel C]
T4 construct: Captured on streptavidin in the ELISA; also called b-sEGFR-His; b-sEGFR-His6

T1 sequence (chain, as listed by the source limits assumed): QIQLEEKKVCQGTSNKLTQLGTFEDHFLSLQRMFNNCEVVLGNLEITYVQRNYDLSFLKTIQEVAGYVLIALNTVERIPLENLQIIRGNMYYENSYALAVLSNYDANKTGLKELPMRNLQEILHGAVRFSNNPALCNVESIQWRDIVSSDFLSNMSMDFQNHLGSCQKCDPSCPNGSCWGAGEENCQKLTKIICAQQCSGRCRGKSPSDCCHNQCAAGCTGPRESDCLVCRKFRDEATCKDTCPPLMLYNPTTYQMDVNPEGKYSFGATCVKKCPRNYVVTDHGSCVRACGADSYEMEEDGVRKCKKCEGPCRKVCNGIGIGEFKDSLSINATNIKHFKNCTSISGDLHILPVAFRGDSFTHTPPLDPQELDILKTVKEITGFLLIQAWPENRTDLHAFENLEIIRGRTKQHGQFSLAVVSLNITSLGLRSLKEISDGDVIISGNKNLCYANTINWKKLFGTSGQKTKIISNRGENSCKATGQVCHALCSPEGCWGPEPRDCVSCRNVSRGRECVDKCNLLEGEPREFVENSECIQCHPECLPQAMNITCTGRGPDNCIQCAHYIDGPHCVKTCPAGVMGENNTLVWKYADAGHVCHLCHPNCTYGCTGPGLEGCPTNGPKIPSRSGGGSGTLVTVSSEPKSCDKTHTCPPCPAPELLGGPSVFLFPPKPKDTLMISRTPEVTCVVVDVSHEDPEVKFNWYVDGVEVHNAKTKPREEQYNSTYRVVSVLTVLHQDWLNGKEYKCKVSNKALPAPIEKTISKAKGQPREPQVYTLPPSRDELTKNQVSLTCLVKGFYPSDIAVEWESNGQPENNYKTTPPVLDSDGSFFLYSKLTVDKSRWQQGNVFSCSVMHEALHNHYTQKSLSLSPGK

| Binder | ELISA signal [1] [units] | ELISA signal [2] [units] | further results |
| --- | --- | --- | --- |
| B1 | 3200 |  |  |
| B2 |  | 3670 |  |
| B3 |  | 3080 |  |
| B4 |  | 1420 |  |
| B5 | 31500 |  |  |
| B6 |  |  | binding result [3]: no binding; binding result (Control-MMB (CNTO 360) [4]): no binding; Relative Signal [5]: 6; Relative Signal [6]: 3940 |
| B7 | 9110 |  |  |
| B8 |  |  | ELISA signal [7]: 8810 units |
| B9 |  | 1360 |  |
| B10 |  |  | binding result [8]: binds |
| B11 | 19800 |  |  |
| B12 | 17100 |  |  |
| B13 |  |  | ELISA signal [9]: 4800 units |
| B14 |  |  | ELISA signal [9]: 4770 units |
| B15 |  |  | ELISA signal [7]: 3350 units |
| B16 |  |  | ELISA signal [10]: 7910 units |
| B17 |  |  | ELISA signal [9]: 5420 units |
| B18 |  | 5720 |  |
| B19 |  | 9380 |  |
| B20 |  | 1160 |  |

| Binder | ELISA signal [1] [units] | ELISA signal [2] [units] | further results |
| --- | --- | --- | --- |
| B21 | 53200 |  |  |
| B22 |  |  | ELISA signal [9]: 6620 units |
| B23 |  | 1780 |  |
| B24 |  |  | ELISA signal [10]: 8660 units |
| B25 |  |  | ELISA signal [7]: 1290 units |
| B26 |  |  | ELISA signal [9]: 9540 units |
| B27 |  |  | ELISA signal [7]: 2580 units |
| B28 |  | 13300 |  |
| B29 | 6380 |  |  |
| B30 |  |  | ELISA signal [9]: 4510 units |
| B31 |  | 6790 | binding result (Control-MMB (CNTO 360) [11]): no binding; binding result (Streptavidin alone): no binding; binding result (biotinylated sEGFR-His6): no binding |
| B32 | 22000 |  |  |
| B33 | 37900 |  |  |
| B34 |  | 1110 |  |
| B35 | 4750 |  |  |
| B36 |  | 1520 |  |
| B37 | 35300 |  |  |
| B38 | 30700 |  |  |
| B39 |  |  | binding result (Control-MMB (CNTO 360) [11]): no binding; ELISA signal [7]: 14000 units; binding result (Streptavidin alone): no binding |
| B40 | 13300 |  |  |

From US20100098681A1 (Janssen / Centocor, published 2010)
